Assay [1] concerns the target Hemagglutinin of H3N2 A/Hong Kong/8/68 (influenza A virus). As to the kind of experiment: cell-based or functional assay.
Assay [2] deals with Hemagglutinin of H4N4 A/Bufflehead (influenza A virus). As to the kind of experiment: cell-based or functional assay.
Assay [3] concerns the target Hemagglutinin of H3N2 A/New York/55/2004 (influenza A virus). As to the kind of experiment: cell-based or functional assay.
The target in assay [4] is Hemagglutinin of H3N2 A/Perth/16/2009 (influenza A virus). As to the kind of experiment: cell-based or functional assay.
Assay [5] deals with Hemagglutinin of H7N7 A/Netherlands/219/03 (influenza A virus). As to the kind of experiment: cell-based or functional assay.
In assay [6] the target is Hemagglutinin of H3N2 A/Wisconsin/67/2005 (influenza A virus). As to the kind of experiment: cell-based or functional assay.
The target in assay [7] is Hemagglutinin of H1N1 A/CA/07/09 (influenza A virus). As to the kind of experiment: cell-based or functional assay.
Assay [8] addresses Hemagglutinin of H5N1 A/VN/1204 (influenza A virus). As to the kind of experiment: cell-based or functional assay.
Assay [9] addresses Hemagglutinin of H3N2 A/Hong Kong/8/68 (influenza A virus). As to the kind of experiment: FortéBio. (In general: BLI is a label-free optical method that tracks binding on a fibre tip over time.)
For assay [10], the target named is Hemagglutinin of H3N2 A/Perth/16/2009 (influenza A virus). As to the kind of experiment: FortéBio.
In assay [11] the target is Hemagglutinin of H7N7 A/Netherlands/219/03 (influenza A virus). As to the kind of experiment: FortéBio.
The target of assay [12] is Hemagglutinin of H3N2 A/Hong Kong/8/68 (influenza A virus). As to the kind of experiment: affinity, method not named in Table 3.
Assay [13] deals with Hemagglutinin of H7N3 A/Canada/rv444/04 (influenza A virus). As to the kind of experiment: affinity, method not named in Table 3.
In assay [14] the target is Hemagglutinin of H3N2 A/New York/55/2004 (influenza A virus). As to the kind of experiment: affinity, method not named in Table 3.
Assay [15] has as its target Hemagglutinin of H3N2 A/Perth/16/2009 (influenza A virus). As to the kind of experiment: affinity, method not named in Table 3.
Assay [16] addresses Hemagglutinin of H7N7 A/Netherlands/219/03 (influenza A virus). As to the kind of experiment: affinity, method not named in Table 3.
Assay [17] has as its target Hemagglutinin of H7 A/Sanderling/A106-125 (influenza A virus). As to the kind of experiment: cell-based or functional assay.
Assay [18] deals with Hemagglutinin of H7 A/Ruddy Turnstone/A106-892 (influenza A virus). As to the kind of experiment: cell-based or functional assay.
Assay [19] addresses Hemagglutinin of H10N7 A/Northern Shoveler (influenza A virus). As to the kind of experiment: cell-based or functional assay.
Assay [20] concerns the target Hemagglutinin of H3 A/Phillipines/2/82 x-79 (influenza A virus). As to the kind of experiment: cell-based or functional assay.
Assay [21] has as its target Hemagglutinin of H3N2 A/Hong Kong/8/68 (influenza A virus). As to the kind of experiment: cell-based or functional assay. This is another data set of the same source.
For assay [22], the target named is Hemagglutinin of H7N3 A/Canada/rv444/04 (influenza A virus). As to the kind of experiment: cell-based or functional assay.
Assay [23] concerns the target Hemagglutinin of H3 A/Udorn/307/1976 (influenza A virus). As to the kind of experiment: cell-based or functional assay.
Assay [24] concerns the target Hemagglutinin of H4N4 A/Bufflehead (influenza A virus). As to the kind of experiment: cell-based or functional assay. The source holds these as a separate data set.
Assay [25] has as its target Hemagglutinin of H3N2 A/New York/55/2004 (influenza A virus). As to the kind of experiment: cell-based or functional assay. The source holds these as a separate data set.
In assay [26] the target is Hemagglutinin of H3N2 A/Perth/16/2009 (influenza A virus). As to the kind of experiment: cell-based or functional assay. The source holds these as a separate data set.
The target in assay [27] is Hemagglutinin of H7 A/Redknot/NJ/1523470/06 (influenza A virus). As to the kind of experiment: cell-based or functional assay.
Assay [28] concerns the target Hemagglutinin of H7N7 A/Netherlands/219/03 (influenza A virus). As to the kind of experiment: cell-based or functional assay. The source holds these as a separate data set.
Assay [29] addresses Hemagglutinin of H3N2 A/Wisconsin/67/2005 (influenza A virus). As to the kind of experiment: cell-based or functional assay. The source holds these as a separate data set.
The target in assay [30] is Hemagglutinin of H3 A/SW/MN/02719 (influenza A virus). As to the kind of experiment: cell-based or functional assay.
For assay [31], the target named is Hemagglutinin of H5 Vietnam/1203/2004 (influenza A virus). As to the kind of experiment: FortéBio.
The target in assay [32] is Hemagglutinin of H1N1 A/CA/07/09 (influenza A virus). As to the kind of experiment: FortéBio.
The target is the same in assay [33]. As to the kind of experiment: affinity, method not named in Table 3.
In assay [34] the target is Hemagglutinin of H5N1 A/VN/1204 (influenza A virus). As to the kind of experiment: affinity, method not named in Table 3.
Assay [35] deals with Hemagglutinin of H9N2 Mallard/MN/98 (influenza A virus). As to the kind of experiment: cell-based or functional assay.
The target of assay [36] is Hemagglutinin of H1N1 A/CA/07/09 (influenza A virus). As to the kind of experiment: cell-based or functional assay. The source holds these as a separate data set.
In assay [37] the target is Hemagglutinin of H2N2 A/Mallard/MN/2008 (influenza A virus). As to the kind of experiment: cell-based or functional assay.
Assay [38] has as its target Hemagglutinin of H5N1 A/VN/1204 (influenza A virus). As to the kind of experiment: cell-based or functional assay. The source holds these as a separate data set.
The target of assay [39] is Influenza A hemagglutinin of clade H7 (strain not stated) (influenza A virus). As to the kind of experiment: FortéBio biolayer interferometry.
Assay [40] deals with Influenza A hemagglutinin of clade H9 (strain not stated) (influenza A virus). As to the kind of experiment: FortéBio biolayer interferometry.
The target of assay [41] is Influenza A hemagglutinin of clade H1 (strain not stated) (influenza A virus). As to the kind of experiment: FortéBio biolayer interferometry.
The target of assay [42] is Influenza A hemagglutinin of clade H5 (strain not stated) (influenza A virus). As to the kind of experiment: FortéBio biolayer interferometry.
In assay [43] the target is Influenza A hemagglutinin of clade H3 (strain not stated) (influenza A virus). As to the kind of experiment: FortéBio biolayer interferometry.

Like-named read-outs stand apart in the source and are kept apart here.

“CR8020 (mAb cloned from Crucell patents) (antibody)”: the EC50 for in vitro neutralization in assay [1] is 7.6 µg/mL; in assay [2] it was more than 40 µg/mL; in assay [3] it was 10 µg/mL; in assay [4] it was 2 µg/mL; in assay [5] it was 13.1 µg/mL; in assay [6], 3.5 µg/mL.
As to “CR6261 (mAb cloned from Crucell patents) (antibody)”, the EC50 for in vitro neutralization in assay [7] was 4 µg/mL; in [8], 3.7 µg/mL.

B1: MAB579 (antibody, V domains shown)
VH: QVQLVQSGAEVKKPGASVKVSCKTSGYTFTAYTIHWVRQAPGQRLEWMGWINAGNGHTKYSQRFKGRVTITRDTSARTTYMELRSLTSEDTALYFCARGPETYYYDKTNWLNSHPDEYFQHWGHGTQVTVSS
VL: DIQMTQSPSTLSASVGDRVTITCRASQTINNYLAWYQQKPGKAPKLLIYKASSLESGVPSRFSGSGSGTEFTLTISSLQPDDFATYYCQEYNNDSPLTFGGGTKVEIK
By Kd is commonly meant the constant that tells how readily two partners part at equilibrium. A high value points to lower affinity. With B1, the Kd was 0.2 nM in assay [9]; 0.7 nM in assay [10]; 0.4 nM in assay [11]; 0.2 nM in assay [12]; 0.6 nM in assay [13]; 0.2 nM in assay [14]. The Kd stood at 0.8 nM in assay [15] and 0.4 nM in assay [16]. Besides, the IC50, MDCK monolayer microneutralization assay is more than 20 µg/mL in [17]; more than 20 µg/mL in assay [18]; 0.8 µg/mL in [19]; 0.9 µg/mL in [20]; 2.8 µg/mL in assay [21]; 1.6 µg/mL in assay [22]. Further, the IC50, MDCK monolayer microneutralization assay in [23] is 1.9 µg/mL; in assay [24], 15.5 µg/mL; in assay [25] it was 1.1 µg/mL; in [26] it was 0.2 µg/mL; in assay [27] it was more than 20 µg/mL; in assay [28] it was 0.6 µg/mL. For the same molecule, the IC50, MDCK monolayer microneutralization assay in assay [29] was 1 µg/mL; in [30], 3.9 µg/mL. The EC50 for in vitro neutralization in assay [19] was determined as 0.8 µg/mL; in assay [21], 2 µg/mL; in [22] it was 0.5 µg/mL; in [24] it was 15 µg/mL; in [25], 2 µg/mL; in [26] it was 0.05 µg/mL. For the same molecule, the EC50 for in vitro neutralization came to 0.7 µg/mL in assay [28] and 1 µg/mL in assay [29]. Also, the Potency Difference (MAB579 against CR8020) amounted to 3 x in assay [21]; 3 x in [24]; 5 x in [25]; 40 x in assay [26]; 20 x in assay [28]; 3 x in assay [29].

B2: MAB53 (antibody, V domains shown)
VH: QVQLVQSGAEVRKPGSSVKVSCKVSGGIIRKYAINWVRQAPGQGLEWMGGIIAIFNTANYAQKFQGRVTITADESTSTVYMELSSLRSEDTALYYCARGMNYYSDYFDYWGQGSLVTVSP
VL: EIVLTQSPGTLSLSPGERATLSCRASQSVRSNNLAWYQHKPGQAPRLLIFGASSRATGIPDRFSGSGSGTDFTLTISRLEPEDFAVYYCQQYGSSPALTFGGGTKVEIK
Take B2: the Kd in assay [31] came to 0.5 nM; in assay [32], 0.2 nM; in assay [33] it was 0.1 nM; in assay [34], 0.5 nM; in assay [39] it was 0.07 nM; in assay [40], 0.03 nM. Moreover, the results for the Kd in assay [41] and in assay [42] were 0.06 nM and 6 nM, respectively. Moreover, the EC50 for in vitro neutralization came out at 0.1 µg/mL in assay [35], 0.14 µg/mL in [36], 1.2 µg/mL in assay [37] and 0.1 µg/mL in assay [38]. Besides, the Potency Difference (MAB53 against CR6261) in assay [36] stood at 30 x; in [38], 40 x.

B3: MAB8 (antibody, V domains shown)
VH: EVQLVESGGGLVKPGGSLRLSCAASGFTFSTYTMSWVRQAPGQGLEWVSSITRTSSNIYYADSVEGRFTISRDNAKNSLYLQMHSLRVEDTAVYYCARISGVVGPVPFDYWGQGTLITVSS
VL: DIQMTQSPSSLSASVGDRVTITCRASQTISKYLNWYQQKPGRAPKLLIYSASSLQSGVPSRFTGSGSGTDFTLTITSLQPEDFATYYCQQSYRPSQITFGPGTKVDIK
Consider B3, for which the Kd in assay [43] is 16 nM; in assay [41], 9 nM; in [42], 0.2 nM.

The record behind these values is patent US20140322210A1.
